According to the supplement of paper PMC10126150:
± gives the standard deviation of the averaged measurements.

System: ATP
Experiment: switch fluorescence ratio, 500 uM ATP over buffer (Cy3 cluster intensity, sum of 5 cycles each) (fold (ratio)); higher = stronger signal-on switching upon ATP binding; sequences stand for … in TCGTCGGCAGCGTCAGATGTGTATAAGAGACAGTTTTTTTTTTTTTTTTTTTTTTTTT…TC
Conditions: aptamer strand: ATP DNA aptamer (quencher-CACCTGGGGGAGTATTGCGGAGGAAGG + anchor), 100 nM annealed; ATP concentration: 500 uM
Summary of the method: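 Clusters with intensities outside 100-1000 RFU were excluded. The remaining Cy3-labelled switching-strand clusters on a modified Illumina MiSeq flow-cell had been annealed to 100 nM quencher-labelled ATP aptamer and imaged in selection buffer, then after 15 min with 500 uM ATP at 22 °C, for five cycles separated by NaOH stripping and re-annealing. The fluorescence ratio, averaged per switch-domain sequence, is each cluster's summed target-cycle Cy3 intensity over its summed buffer-cycle Cy3 intensity.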
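Note: ATP exposure 15 min at 22 °C before imaging.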

Sequence	switch fluorescence ratio
TGGGGAGCAA	1.73 ± 0.074
AAGATAACCT	1.87 ± 0.23
GTAAGGGGTG	1.01 ± 0.014
AGTTTTAGTA	0.974 ± 0.03
GCTTAGTGGT	0.981 ± 0.025
TGTGGGGAGT	0.952 ± 0.019
ATTATCTGTG	0.97 ± 0.039
TCGGGCTAGC	0.986 ± 0.012
AGGGTTTGGT	0.982 ± 0.02
GAGGTTTGTT	0.979 ± 0.023
AAGGTGGTGG	1.04 ± 0.0016
GAAGCGTCGT	0.983 ± 0.063
AGGGGAGGGC	0.998 ± 0.042
GCCGGAAGGC	0.98 ± 0.076
AGGACCGTTA	1 ± 0.031
TTGTTTTGTC	0.975 ± 0.065
TAGGTTTTGG	0.989 ± 0.035
TGACTAGGGA	0.992 ± 0.021
CGTTGGAATC	1.12 ± 0.014
GAGGGAGGGG	1.02 ± 0.044
GGGAATTAGG	1 ± 0.021
TGGGCTGCGG	0.974 ± 0.04
TTTTATATCC	0.963 ± 0.028

Sequence	switch fluorescence ratio
AATGACTCGT	0.974 ± 0.01
TCTAAATGGG	1.029 ± 0.005
GGTTTACGCT	0.996 ± 0.027
TCAATTCGGC	0.991 ± 0.025
CACACTCGCT	1.01 ± 0.024
TGGGTGTTGT	1.01 ± 0.034
GAGAGAACTT	1.03 ± 0.021
AAACTCTTGT	1.01 ± 0.0033
ATTATCAGCG	1.01 ± 0.019
CCCGTTTGGG	0.981 ± 0.023
TGCTGGTGCC	1.02 ± 0.013
TGATGCAAGT	1.09 ± 0.032
TTTCGGGGGA	1.01 ± 0.032
GATAACGAGG	1.05 ± 0.02
TTTATCTTGT	0.9852 ± 0.0016
GAATAGTGGG	1.006 ± 0.005
TTGAGGTC	1 ± 0.029
AAGAGCGGGG	0.989 ± 0.043
AAACCTTGCA	1.92 ± 0.15
TCAAGTTCTT	1.03 ± 0.031
GGTATAGTTA	1.02 ± 0.037
GTGTTAACCT	1.25 ± 0.045
AATCGGCACG	1.01 ± 0.02

Sequence	switch fluorescence ratio
GGTACGCG	0.982 ± 0.027
CGAGCGATGG	1.94 ± 0.074
ATTTACCCTG	1.08 ± 0.022
TAGTATTTAG	1.024 ± 0.00096
ATTCCTGGGA	1.03 ± 0.018
GGGAAAGGCG	0.983 ± 0.042
TTTGCAGGGC	1.05 ± 0.012
GGGGTATCGG	0.9828 ± 0.0085
GTTTGTGGTG	1.01 ± 0.017
AAGCGGCGGG	1.01 ± 0.019
TTTACTTCTC	1.02 ± 0.032
GGGATTGGGC	0.992 ± 0.022
TCTATATTAG	1.02 ± 0.023
GTAAAAATTG	0.986 ± 0.028
TTCCACAGGA	1.15 ± 0.15
TGGGGGTTCG	0.99 ± 0.035
GGGCCCGATT	0.976 ± 0.037
ACTCAATTAT	1.02 ± 0.042
CTGGGAGGTG	1.03 ± 0.055
GGTGTGGTGG	1.01 ± 0.027
AATTTTAGCC	0.987 ± 0.011
CAGGGTATGA	1.007 ± 0.0046
GCGAGAATGT	0.9879 ± 0.0039

Sequence	switch fluorescence ratio
AAAAGAGATT	0.995 ± 0.013
AGCGATGGCC	1.05 ± 0.028
CTGACAAGGC	1.61 ± 0.27
TTCGTTATGG	1 ± 0.046
GTGCAATGGC	1.57 ± 0.18
AGAGGGGGAG	0.979 ± 0.027
AAGTTTTCTC	0.951 ± 0.0028
ATAGCTTTGA	1.02 ± 0.0014
CGCGGGTTGG	1.02 ± 0.017
TTGATTTTTT	0.996 ± 0.029
GTTTTCTGTT	1.0024 ± 0.00021
CTGTGTGGGA	1.01 ± 0.013
TGGGCGTTTA	1.04 ± 0.026
AATTGTGGCT	1 ± 0.025
CTTCGTACGA	1.03 ± 0.043
TGCTCATTTT	0.992 ± 0.032
GCTGGAACCG	1.08 ± 0.022
TTATCTGGGG	1.01 ± 0.055
ATGATTGCAC	1.01 ± 0.057
TTCTAAATGT	0.9995 ± 0.0021
GGTACAAGAT	1.03 ± 0.013
TATACCATGG	0.971 ± 0.046
GGGTGCACAC	1.09 ± 0.095

Sequence	switch fluorescence ratio
GAGCGTAGTA	1 ± 0.037
GCTTTAGTAT	0.9963 ± 0.0058
CATTTGTTAG	0.9657 ± 0.0071
GCTCCTTAGG	1.12 ± 0.048
AAAAGTTTGA	0.9656 ± 0.008
CTTATTCGCC	1.05 ± 0.099
TATTTATGCG	1.021 ± 0.0091
AAATCGCATG	1.03 ± 0.019
CCAAATCGGA	1 ± 0.022
ACTAAAAAGA	1.07 ± 0.056
CCTGGATATT	0.997 ± 0.013
ATGGGCTATT	0.994 ± 0.038
TATCACCATA	1.04 ± 0.079
TTTCCGAGGG	1.43 ± 0.63
TTGGACATAT	1.008 ± 0.0039
CTGTGGGGCG	1.01 ± 0.045
GGGGAATCTA	0.997 ± 0.022
AATTCATGTA	0.9886 ± 0.0064
GTTGGGTTGC	0.999 ± 0.018
TCTGACTTGA	0.968 ± 0.018
ATAGGGCGGC	1.012 ± 0.0038
TGTTAGTCGT	1.013 ± 0.0091
TTTTTTTTAG	1.07 ± 0.27

Sequence	switch fluorescence ratio
TTTCTTGGGT	1.04 ± 0.17
TATGGGGGGG	0.994 ± 0.038
TTGAGTTGGT	0.95 ± 0.025
GCGAATTGGG	1.02 ± 0.024
GGGCTGGAAT	1 ± 0.02
CGGGGGTTAA	0.9908 ± 0.0021
AGGGGAATTA	1.026 ± 0.0047
GGTGCAGCGG	0.982 ± 0.018
GGATTGGATT	1 ± 0.022
GTCATGCGTG	0.974 ± 0.044
AAGGTTGGGA	0.962 ± 0.039
AGTTGGTGAG	0.98 ± 0.034
CGGTCTTGGG	0.9536 ± 0.0085
GTTTATGTAC	1.07 ± 0.065
TGGGGGGTGC	1.13 ± 0.4
TTGTGTTTTA	0.998 ± 0.02
CGGACTAACG	1.08 ± 0.053
ATTGTAACAA	1.037 ± 0.0089
AGCTGACATT	0.999 ± 0.034
TTAAAGTTAT	0.986 ± 0.061
TAAGTGCGGG	0.974 ± 0.0034
GCAGTCCTTT	0.958 ± 0.029
CAACAGTTTT	1 ± 0.012

Sequence	switch fluorescence ratio
CTCTGTTTGC	1.803 ± 0.0037
CCAAATGTCG	0.982 ± 0.025
ATCGGATTAG	0.995 ± 0.0094
CCTAGCAAGT	3.19 ± 0.92
GAGTCCACGT	1 ± 0.034
ATTCTTTGCC	1.003 ± 0.006
AAAAGTGACT	0.982 ± 0.049
CTTTATGCTG	1.05 ± 0.047
TTGCAAAAGC	1 ± 0.065
AGGCACCATC	1.06 ± 0.045
TCCTACGTTT	1.75 ± 0.86
GATGTTCGGC	1.05 ± 0.037
CAGTCAAGGG	1.01 ± 0.013
AAGGGGTTTG	0.969 ± 0.032
TTCGGCAGTA	1 ± 0.025
TACAAAGGCG	1.06 ± 0.018
GGCAATTCAG	1.07 ± 0.019
TTCAGGGTAC	0.987 ± 0.039
TTGAAACTTG	0.952 ± 0.018
